Laboratory results reported in patent US8916684B2, “Bioengineered protein pores” (Syracuse University, priority 2010, dated 2014).

Assay: Single-channel electrical recordings of protein pores in planar lipid bilayers
Type: biochemical
Conditions: +40 mV
[1] = 1 M KCl, 10 mM potassium phosphate, pH 7.4

B1: WT-FhuA: wild-type E. coli ferric hydroxamate uptake component A, 714-residue β-barrel outer membrane protein (protein, UniProt P06971 34-747, looked up)
Ferrichrome outer membrane …: AVEPKEDTITVTAAPAPQESAWGPAATIAARQSATGTKTDTPIQKVPQSISVVTAEEMALHQPKSVKEALSYTPGVSVGTRGASNTYDHLIIRGFAAEGQSQNNYLNGLKLQGNFYNDAVIDPYMLERAEIMRGPVSVLYGKSSPGGLLNMVSKRPTTEPLKEVQFKAGTDSLFQTGFDFSDSLDDDGVYSYRLTGLARSANAQQKGSEEQRYAIAPAFTWRPDDKTNFTFLSYFQNEPETGYYGWLPKEGTVEPLPNGKRLPTDFNEGAKNNTYSRNEKMVGYSFDHEFNDTFTVRQNLRFAENKTSQNSVYGYGVCSDPANAYSKQCAALAPADKGHYLARKYVVDDEKLQNFSVDTQLQSKFATGDIDHTLLTGVDFMRMRNDINAWFGYDDSVPLLNLYNPVNTDFDFNAKDPANSGPYRILNKQKQTGVYVQDQAQWDKVLVTLGGRYDWADQESLNRVAGTTDKRDDKQFTWRGGVNYLFDNGVTPYFSYSESFEPSSQVGKDGNIFAPSKGKQYEVGVKYVPEDRPIVVTGAVYNLTKTNNLMADPEGSFFSVEGGEIRARGVEIEAKAALSASVNVVGSYTYTDAEYTTDTTYKGNTPAQVPKHMASLWADYTFFDGPLSGLTLGTGGRYTGSSYGDPANSFKVGSYTVVDALVRYDLARVGMAGSNVALHVNNLFDREYVASCFNTYGCFWGAERQVVATATFRF
  all-points histogram current amplitude peak: ~12.5 pA
[1]
  Conductance: 0.3 ± 0.2 nS
  single-channel conductance: 0.3±0.2 nS
